In test [1] the target is PEX19-His, full-length (T. brucei). Description: AlphaScreen or HTRF. (In general: Bead proximity is the source of the signal in Alpha formats.)
Test [2] concerns the target PEX19-His 1 to 50 (T. brucei). Description: AlphaScreen or HTRF.
Test [3] deals with PEX38_(65–134) (T. brucei). The test is described as follows: ITC; titration of PEX38 with PEX19; technical triplicates. (Isothermal titration calorimetry measures the heat released or taken up as one component is titrated into another.)
For test [4], the target named is PEX19-His, full-length (T. brucei). The test is described as follows: AlphaScreen or HTRF; AlphaScreen displacement assay: equimolar PEX19-His and GST-PEX3Δ1-44 (30 nM), increasing amounts of untagged PEX38.
The target of test [5] is TbPEX38 (65-134) (T. brucei). Description: ITC; 40 µM TbPEX38 titrated with 440 µM TbPEX19; triplicates; 25°C; 20 mM Tris pH 7.5, 50 mM NaCl; one-site binding model; MicroCal PEAQ-ITC.

Consider GST-PEX3Δ1-44 (domain or fragment), for which the other in test [1] was determined as 30 fold.

Turning to “GST-PEX38, full-length (natural protein)”, the other in test [2] came to 10 fold.

What is called Kd is the equilibrium constant for the complex coming apart. With “PEX19_(1–50) with a C-terminal SGGY extension (domain or fragment)”, the Kd in test [3] was 3000 nM.

In general, IC50 refers to the concentration at which inhibition is half-maximal. Lower therefore signals higher potency. Turning to PEX38_(65–134) (domain or fragment), in test [4], the IC50 worked out at 446 nM.

In test [5], “TbPEX19 (1-50-SGGY) (domain or fragment)” registered a Kd of 2890 nM.

Turning to “untagged PEX38, full-length (natural protein)”, the IC50 in test [4] is 950 nM.

Values taken from PMC12956874.
